Test system: MS2 coat protein
Experiment: apparent KD of MS2 coat protein; higher = weaker reporter binding
Settings: Eterna round: R107
Procedure, shortened: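 Titration buffer: 100 mM Tris-HCl pH 7.5, 80 mM KCl, 4 mM MgCl2, without or with constant ligand. Designed RNA switches transcribed on-chip from Illumina sequencing clusters received SNAP-549-labelled MS2 coat protein in twofold steps from 0.7 or 1.5 nM to 3 µM. Apparent KD is the median per design of fits to normalised cluster binding curves.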

[1] = input ligand: theophylline 20 uM
[2] = input ligand: theophylline 2 mM
[3] = input ligand: tryptophan 2.4 mM

Sequence	apparent KD of MS2 coat protein (input ligand: arginine 13.2 mM) [nM]	apparent KD of MS2 coat protein [1] [nM]	apparent KD of MS2 coat protein [2] [nM]	apparent KD of MS2 coat protein [3] [nM]	apparent KD of MS2 coat protein (input ligand: none) [nM]
CUACAUUUGUAGAAACCGGUCAACAUUAUUCGAGGACCGGUACGGCCGCCACUCGUAUAUUUUUAUACAUGAGGAUCACCCAUGU [Tryptophan A 7]	14.4	14.4	13		
AGACAUGAGGAUCACCCAUGUAGCAUGGAUACCAGAUCCAGAUUUAUCCCUUGGCAGCUGUGGUAAAGUGAUGGAUUGCUCCUAG [Exclusion - Theophylline A (Freestyle 7)]	38.1	55.8		36.9	
GCUAGUGGCAGAAGGAGCGAGGCGACAUACGGGUACAUGAGGAUCACCCAUGUGGUGUGUCCUCAGGUAGGUCGCUGCCACUAGC [SSAB NP+V+V2 #12]	134	152	145	521	74.7
AGCGACAUGAGGAUCACCCAUGUACAUUCCCGAGGACCGGUACGGCCGCCACUCGAUGGAAGUGGUAGCAGCUUGGAUGGGCCUA [theeternabot_sameState_MS2_Trp_A_23]	14.5	20	17.8		
GUGGAGACACGAGAUACCAGUCUCUAUAACAUGAGGAUCACCCAUGUAAUGCUCCUCAGGGACCCUUGGCAGCUCAGUAUGAUGA [Exclusion - Theophylline B]	34.8	54.5		35.7	
ACUUGAUACUGAAGGAGCGUCGGAUAAACUCGCACAUGAGGAUCACCCAUGUAUAUGAAUCGACAGGUAGGUCGCAGUAUCGAGU [Arg B SS t6]	13	19.7	15.6	15.3	13.6
GGACUAACCAGAAGGAGCGGCGCGCAGAAACUGCAAAUUCCUCCGCACGAGGAUCACCCGUGUCAGGUAGGUCGCUGGUUAGUCG [ArgBX 28]	14.2	17.9	16.6	17.5	14.2
AUUAACAUGAGGAUCACCCAUGUUUGUCUCCGAGGACCGGUACGGCCGCCACUCGCAGGUUGGAGUCGCUAUAUGGGCGUUCACU [theeternabot_sameState_MS2_Trp_A_42]	31.7	53.5	64.9		
AUUAAUAGUUGUGAUACCAGACUUACAUGAGGAUCACCCAUGUUACUUAAGUGUUUUGAUGUCCCUUGGCAGCACUGUUUAGUUA [JR_SSTheophyB_Sub016]	24.3	33		25	
ACAUGAGGAUCACCCAUGUUCCUCAUUGAUACCAGUGAAAGAAGACGCCCUUGGCAGCGAGAAGAAGAAGAAGAAGUUUUUUUUU [6.B]	209	770		917	
AUACAUGAGGAUCACCCAUGUUAUAGUGAAGGAGCGACAUUUAUGUCAGGUAGGUCGCACUAAAGUUUAAUAAUUCUUUGAUCUU [JR_SSArginiA_Sub011]	18.6	24.9	15.6	18.6	15.7
UGUAACAUGAGGAUCACCCAUGUAAGUGAUACCAGAUAAGUAGUAGUCCCUUGGCAGCAUAUUGGGAAAGUGUAUAGUCUAUAUU [Same State - Theophylline A (Freestyle 3)]	43.6	74.9		51.1	
CAUGAAGUAACUGAUACCAGUGUACUGACAUGAGGAUCACCCAUGUUGGGUUUUGUUGUACACCCUUGGCAGCAGAAUCUUUAUG [AstrosExyTheB#4]	50	70.8		58.5	
GCAUAGUAAAAUGAUACCAGAGUCAAAACAGACAUGAGGAUCACCCAUGUGCAUAUACAACUCCCUUGGCAGCAUUAAAACGGGA [theeternabot_sameState_MS2_Theo_B_28]	14.2	18.7		18.2	
ACAUGAGGAUCACCCAUGUCACGGCACGAUACCAGCUGAUCCGGUGGCCCUUGGCAGCGUGACGUUUGGUCCCGCGGAUGACACG [ppmullin]	96.5	142		137	
CCUGCGUUUCUUUUCUUUCGCAGGAAUGAUACCAGUAGGGAAACCUACCCUUGGCAGCAUGGGACAUGAGGAUCACCCAUGUUAU [SSThA NP+V+V2 #3]	167	243		300	
GAACAUGAGGAUCACCCAUGUUAAACAGAUACCAGUGAUAUAAUACACCCUUGGCAGCUGAAGCUGAAUAAUAAUUCCCUCAAGC [#21 SameState-TheophyllineA]	13.4	17		10.5	
GGGCAAGAGGGAAGGAGCGUCGGCUGAGUAACAUGAGGAUCACCCAUGUAGCACAUGGUGUGGCAGGUAGGUCGCCCUCUGCCCU [SS-ArgB8]	56.1	201	178	118	103

Sequence	apparent KD of MS2 coat protein (input ligand: arginine 13.2 mM) [nM]	apparent KD of MS2 coat protein [1] [nM]	apparent KD of MS2 coat protein [2] [nM]	apparent KD of MS2 coat protein [3] [nM]	apparent KD of MS2 coat protein (input ligand: none) [nM]
UGAGUUAGACAAAAGUCUAGCUCUGGUGAAGGAGCGUCCGAAAGGACAGGUAGGUCGCACCACCUGAGGAUCACCCAGGUUCCUA [ArgAS 14 #OpenEnded #AlternativeMS2]	28.5	29.8	57.2	38.9	42.1
CACGAAAGAUCGGCCGCCACUAUUUGAUGUGUUCUUUCACAUGAGGAUCACCCAUGUUCUUAUUAUAGGACCGGGAUUGAGCGUG [ETB #3]	73.9	141	190		
AGCCGAACCACGGCCGCCACUGUAGACGUGACGAAAGUCGCGUCAACAUGAGGAUCACCCAUGUACAGGACCGGGUGGUCCGGCA [Omei Trp B SS A v2]	9.09	11.2	8.09	6.75	8.68
ACACAUGAGGGAAGGAGCGCCAUGAACACACAUGAGGAUCACCCAUGUUUUUUUUGUGUUUGGCAGGUAGGUCGCCCACAUGAGG [Same State Arginine B 2]	7.38	22.5	9.33	7.57	10.1
UCAUGAGUUUCGGAUACCAGUGAUGUCGAUACAUGAGGAUCACCCAUGUUAGAGGAUGUACACCCUUGGCAGCCGGGUGUGGCGG [ooimullin]	33.7	102	102	113	143
AUCAUAAUAGACUCGUUUGAUUAUAUGGAACGAGGACCGGUACGGCCGCCACUCGUGAUUUACAUGAGGAUCACCCAUGUUAGCA [JR_ExcTryptoA_Sub005]	17	23.5	19.4		
UACAAACAUGAGGAUCACCCAUGUAGUGAUACCAGCAUAACAGAUUGCCCUUGGCAGCACCGGUUUGUACUCAAACGAAGUACGG [theeternabot_sameState_MS2_Theo_A_36]	56	86.2		52.9	
AACGAUUAAUCGGCCGCCACUCACAUGAGGAUCACCCAUGUUGUUCUUCCAGGUGGUUCUGUUCCGAGGACCGGGAUUCCGUCCU [theeternabot_exclusion_MS2_Trp_B_42]	41.8	70.6	70.7		
ACACACAUGAGGAUCACCCAUGUCUAUAUACGAGGACCGGUACGGCCGCCACUCGUGAGAUCGCGAGAGACAGCUUUGGGCUAGU [theeternabot_sameState_MS2_Trp_A_37]	17	23.9	19		
GGGAAUGAACGUGAUACCAGAGAUCCGGUCUCCGUCACUCUACAUGAGGAUCACCCAUGUCUCCCUUGGCAGCACCGUCAUCGGG [Exclusion Theophylline B GF 29]	32.4	43.3		29	
UCGUUUUAGUCGGCCGCCACUGAACUCAUGUUCAACAUGAGGAUCACCCAUGUACCUUAUUUUAACAGGACCGGGACGUAAUAGA [JR_ExcTryptoB_Sub001]	165	264	258		
AUAAGCUGUACCGGAAUAUCCUCAUGUAUACGAGGACCGGUACGGCCGCCACUCGAUAACAUGAGGAUCACCCAUGUAAUAAUAA [|T'-M'-Trp-Ms2|_Design20]	14.2	15.4	14.5		
CUAAGAGUUACGGCCGCCACUAGUUGGGAUCCGCCCGUAAAAUCACAUGAGGAUCACCCAUGUCCUAGGACCGGGUAAUCGCAUU [theeternabot_sameState_MS2_Trp_B_31]	110	616	499		
ACGCCCAGGUAGGCUUAAUGGGAAAUGGAAGGAGCGCUGAUGCAAGCAGGUAGGUCGCCAACGAACAUGAGGAUCACCCAUGUAA [Same State - Arginine A (Freestyle 2)]	16.3	28.2	23.8	20.7	22.3
AAUAUAAGUGUAAUUUUAUGUAUCUCUGAUACCAGACCCUCAUGUGUCCCUUGGCAGCAGUAACAUGAGGAUCACCCAUGUAAAA [JR_Nu_SSTheophyA_Sub023]	30.7	103		86	
AAAACGCAACUCGAUACCAGUACACUGAGUCUUCGCCACGACAUGAGGAUCACCCAUGUGUACCCUUGGCAGCGACAGAGCCACA [theeternabot_exclusion_MS2_Theo_B_42]	43.4	84.9		57.7	
UACAUGAGGAUCACCCAUGUAUGAAUGGAUACCAGAUAAAAUAAGGUCCCUUGGCAGCUAGUGAAUCGAGGGUGGGUAUCAUGAU [#13 Exclusion-TheophyllineA]	10.6	12.8		10.2	
AAUAACAUGAGGAUCACCCAUGUAAAAGAUACCAGAGUGAUGAUCCUCCCUUGGCAGCUUAAAACGCUAUUGGAAACAAUAGCGA [Mat - Same State Theophlline A - Mod of Eli - D5]	48.8	179		74	

Source: the supplement of paper PMC9170038
